Measurements: US6600012 (BIOMIRA, dated 2003)

B1: SIINFEKL, 8-mer ovalbumin (OVA) peptide (peptide)
peptide: SIINFEKL
notes: It is the positive control for HLA.A2 upregulation and the negative control for killing

What was measured:
[1] = biological target: T1, HLA.A2 on T2 mutant cells; assay: T2 cell HLA.A2 upregulation assay, flow cytometry with MA2.1
T1 construct: MHC class I molecule on the T2 cell surface; also called HLA.A2.1; class I on T2 cells

[2] = biological target: T1, HLA.A2 on T2 mutant cells; assay: T2 cell HLA.A2 upregulation assay, flow cytometry

| Binder | % Change in mean channel intensity [1] | binding result [2] |
| --- | --- | --- |
| GVTSAPDTR [GVTSAPDTR, MUC-1 tandem repeat synthetic 9 mer] | 12% | – |
| B1 | – | binds |
| VTSAPDTRP [VTSAPDTRP, MUC-1 tandem repeat synthetic 9 mer] | 29% | – |
| TSAPDTRPA (also called TSA 9 mer; 9 mers TSA . .) [TSAPDTRPA, MUC-1 tandem repeat synthetic 9 mer] | 256% | – |
| APDTRPAPG [APDTRPAPG, MUC-1 tandem repeat synthetic 9 mer] | 66% | – |
| PDTRPAPGS [PDTRPAPGS, MUC-1 tandem repeat synthetic 9 mer] | 3% | – |
| DTRPAPGST [DTRPAPGST, MUC-1 tandem repeat synthetic 9 mer] | 52% | – |
| TSAPDTR (also called 7 mer TSA . . . peptide) [TSAPDTR, MUC-1 synthetic 7 mer] | – | no binding (tested: 50 µM/well) |
